Biological target: OX40-R65C (human OX40 with p.Arg65Cys), expressed ectopically on cells (human) (UniProt P43489)
Assay: flow cytometry on cells

Chain of UniProt P43489 (P43489 29-277 R65C): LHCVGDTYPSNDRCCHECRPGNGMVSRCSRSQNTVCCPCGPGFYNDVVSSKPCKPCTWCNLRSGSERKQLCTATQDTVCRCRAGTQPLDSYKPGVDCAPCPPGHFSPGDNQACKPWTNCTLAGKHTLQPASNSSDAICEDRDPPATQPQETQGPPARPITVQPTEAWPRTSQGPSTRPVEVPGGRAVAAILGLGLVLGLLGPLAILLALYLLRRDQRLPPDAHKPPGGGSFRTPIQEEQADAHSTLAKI

Substance: biotinylated recombinant soluble human OX40 ligand (OX40L) (from UniProt P23510 51-183)
- fold decrease of OX40L binding against cells expressing OX40-WT: 16 fold

— publication PMC3754857
